T1: PP2A regulatory subunit B55α (human (endogenous in human HEK TER …, UniProt P63151 2-447, limits assumed))
T1 construct: Endogenous protein found in anti-FLAG immune complexes by immunoblot
T1 sequence (looked up): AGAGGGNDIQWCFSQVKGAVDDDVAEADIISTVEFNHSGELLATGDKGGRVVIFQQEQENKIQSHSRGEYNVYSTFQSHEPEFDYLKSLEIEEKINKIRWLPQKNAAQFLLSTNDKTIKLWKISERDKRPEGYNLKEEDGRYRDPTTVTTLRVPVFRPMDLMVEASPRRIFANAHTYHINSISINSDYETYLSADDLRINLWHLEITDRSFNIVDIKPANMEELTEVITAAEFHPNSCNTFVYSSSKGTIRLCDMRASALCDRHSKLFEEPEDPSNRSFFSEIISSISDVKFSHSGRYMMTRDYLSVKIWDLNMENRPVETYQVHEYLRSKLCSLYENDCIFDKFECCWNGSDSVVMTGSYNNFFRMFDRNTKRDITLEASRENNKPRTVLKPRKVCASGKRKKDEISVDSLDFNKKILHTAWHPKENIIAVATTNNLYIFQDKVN


Tests used:
[1] = biological target: PP2A regulatory subunit B56γ (human (endogenous in human HEK TER …, UniProt Q13362 1-524)); assay: anti-FLAG co-IP from HEK TER cells, immunoblot, densitometry
[2] = biological target: T1, PP2A regulatory subunit B55α; assay: anti-FLAG co-IP from HEK TER cells, immunoblot, densitometry; +++ >90%, ++ 50-90%, + <50%
[3] = biological target: T2, PP2A regulatory subunit B56ε (human (endogenous in human HEK TER …, UniProt Q16537 2-467, limits assumed)); assay: as above
T2 construct: Endogenous protein found in anti-FLAG immune complexes by immunoblot

[4] = biological target: T3, PP2A regulatory subunit B56α (human (endogenous in human HEK TER …, UniProt Q15172 2-486, limits assumed)); assay: as above
T3 construct: Endogenous protein found in anti-FLAG immune complexes by immunoblot

[5] = biological target: T4, PP2A catalytic subunit Cα (human (endogenous in human HEK TER or …, UniProt P67775 1-309)); assay: as above
T4 construct: Endogenous protein found in anti-FLAG immune complexes by immunoblot or mass spectroscopy; also called PP2A catalytic Cα
T4 sequence (P67775 whole entry): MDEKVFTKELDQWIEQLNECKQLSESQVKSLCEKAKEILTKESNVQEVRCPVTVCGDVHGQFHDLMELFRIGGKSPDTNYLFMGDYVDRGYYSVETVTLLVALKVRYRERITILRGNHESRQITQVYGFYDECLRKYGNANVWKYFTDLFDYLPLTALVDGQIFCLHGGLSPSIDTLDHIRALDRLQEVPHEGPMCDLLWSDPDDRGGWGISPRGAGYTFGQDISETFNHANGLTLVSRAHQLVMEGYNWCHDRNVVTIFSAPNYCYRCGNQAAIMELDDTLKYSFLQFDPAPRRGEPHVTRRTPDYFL

T3 sequence (Q15172 2-486 limits assumed): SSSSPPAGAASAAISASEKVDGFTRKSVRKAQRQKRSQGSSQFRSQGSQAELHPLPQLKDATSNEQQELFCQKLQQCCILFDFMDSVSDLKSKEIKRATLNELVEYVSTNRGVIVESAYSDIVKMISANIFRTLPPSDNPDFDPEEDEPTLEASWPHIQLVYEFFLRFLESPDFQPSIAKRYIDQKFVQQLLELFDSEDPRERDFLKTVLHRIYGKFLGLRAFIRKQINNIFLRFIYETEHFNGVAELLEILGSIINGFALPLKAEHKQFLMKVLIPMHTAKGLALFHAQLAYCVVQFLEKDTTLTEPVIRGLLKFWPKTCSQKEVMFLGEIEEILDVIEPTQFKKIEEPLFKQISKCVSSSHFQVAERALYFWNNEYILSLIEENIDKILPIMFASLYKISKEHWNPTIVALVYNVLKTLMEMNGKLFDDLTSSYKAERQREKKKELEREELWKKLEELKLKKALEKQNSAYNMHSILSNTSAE
T2 sequence (Q16537 2-467 limits assumed): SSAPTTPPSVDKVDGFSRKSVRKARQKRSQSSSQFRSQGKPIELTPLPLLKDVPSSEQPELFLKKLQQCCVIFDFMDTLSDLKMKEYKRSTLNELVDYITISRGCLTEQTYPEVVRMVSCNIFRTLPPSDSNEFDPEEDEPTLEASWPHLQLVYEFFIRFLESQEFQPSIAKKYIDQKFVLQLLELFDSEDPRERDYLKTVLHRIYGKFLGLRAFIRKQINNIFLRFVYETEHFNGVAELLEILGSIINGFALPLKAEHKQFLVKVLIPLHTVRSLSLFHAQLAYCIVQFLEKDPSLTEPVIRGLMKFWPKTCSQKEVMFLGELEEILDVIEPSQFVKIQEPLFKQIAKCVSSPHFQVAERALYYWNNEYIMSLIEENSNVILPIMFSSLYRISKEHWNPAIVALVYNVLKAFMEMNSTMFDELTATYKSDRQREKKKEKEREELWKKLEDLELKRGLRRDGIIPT
PP2A regulatory subunit B56γ (human, sequence (Q13362 whole entry): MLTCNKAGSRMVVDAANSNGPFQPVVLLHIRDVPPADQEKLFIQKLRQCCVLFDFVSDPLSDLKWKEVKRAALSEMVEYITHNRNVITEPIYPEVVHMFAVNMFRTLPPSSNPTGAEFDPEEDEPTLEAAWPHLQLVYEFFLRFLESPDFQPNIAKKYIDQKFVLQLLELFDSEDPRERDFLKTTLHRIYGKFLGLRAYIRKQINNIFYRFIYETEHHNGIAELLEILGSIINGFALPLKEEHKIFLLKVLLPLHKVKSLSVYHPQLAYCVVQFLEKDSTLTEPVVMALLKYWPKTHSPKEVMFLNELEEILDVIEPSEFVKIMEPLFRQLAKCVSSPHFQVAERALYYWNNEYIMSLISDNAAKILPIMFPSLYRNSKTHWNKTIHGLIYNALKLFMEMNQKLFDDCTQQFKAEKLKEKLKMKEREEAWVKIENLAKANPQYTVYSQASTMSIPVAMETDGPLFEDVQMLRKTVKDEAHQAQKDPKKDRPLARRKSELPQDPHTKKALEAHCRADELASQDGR

| Binder | binding result [1] | binding level (percent, co-immunoprecipitation densitometry) [2] | binding level (percent, co-immunoprecipitation densitometry) [3] | binding level (percent, co-immunoprecipitation densitometry) [4] | binding level (percent, co-immunoprecipitation densitometry) [5] |
| --- | --- | --- | --- | --- | --- |
| cancer-derived FLAG-tagged PP2A Aβ mutant ΔE344-E388 (other, Deletion of exon 9, in-frame deletion of 45 amino acids; Overexpressed in HEK TER cells; also called D344-388) MDYKDDDDKAGASELGTGPGAAGGDGDDSLYPIAVLIDELRNEDVQLRLNSIKKLSTIALALGVERTRSELLPFLTDTIYDEDEVLLALAEQLGNFTGLVGGPDFAHCLLPPLENLATVEETVVRDKAVESLRQISQEHTPVALEAYFVPLVKRLASGDWFTSRTSACGLFSVCYPRASNAVKAEIRQQFRSLCSDDTPMVRRAAASKLGEFAKVLELDSVKSEIVPLFTSLASDEQDSVRLLAVEACVSIAQLLSQDDLETLVMPTLRQAAEDKSWRVRYMVADRFSELQKAMGPKITLNDLIPAFQNLLKDCEAEVRAAAAHKVKELGENLPIEDRETIIMNQILPYIKCPDVRLNIISNLDCVNEVIGIRQLSQSLLPAIVELAEDAKWRVRLAIIEYMPLLAGQLGVEFFDEKLNSLCMAWLVDHVYAIREAATNNLMKLVQKFGTEWAQNTIVPKVLVMANDPNYLHRMTTLFCINALSEACGQEITTKQMLPIVLKMAGDQVANVRFNVAKSLQKIGPILDTNALQGEVKPVLQKLGQDEDMDVKYFAQEAISVLALA | no binding | – | – | – | – |
| wild type (WT) FLAG epitope-tagged version of PP2A Aβ (other, UniProt P30154 1-601, looked up, not shown: small tags and cut ends, also called wtPP2A Aβ; FLAG-tagged Aβ) MAGASELGTGPGAAGGDGDDSLYPIAVLIDELRNEDVQLRLNSIKKLSTIALALGVERTRSELLPFLTDTIYDEDEVLLALAEQLGNFTGLVGGPDFAHCLLPPLENLATVEETVVRDKAVESLRQISQEHTPVALEAYFVPLVKRLASGDWFTSRTSACGLFSVCYPRASNAVKAEIRQQFRSLCSDDTPMVRRAAASKLGEFAKVLELDSVKSEIVPLFTSLASDEQDSVRLLAVEACVSIAQLLSQDDLETLVMPTLRQAAEDKSWRVRYMVADRFSELQKAMGPKITLNDLIPAFQNLLKDCEAEVRAAAAHKVKELGENLPIEDRETIIMNQILPYIKELVSDTNQHVKSALASVIMGLSTILGKENTIEHLLPLFLAQLKDECPDVRLNIISNLDCVNEVIGIRQLSQSLLPAIVELAEDAKWRVRLAIIEYMPLLAGQLGVEFFDEKLNSLCMAWLVDHVYAIREAATNNLMKLVQKFGTEWAQNTIVPKVLVMANDPNYLHRMTTLFCINALSEACGQEITTKQMLPIVLKMAGDQVANVRFNVAKSLQKIGPILDTNALQGEVKPVLQKLGQDEDMDVKYFAQEAISVLALA | – | > 90% | > 90% | > 90% | > 90% |
| cancer-derived FLAG-tagged PP2A Aβ mutant L101P/V448A (other, UniProt P30154 1-601, looked up, not shown: small tags and cut ends, Overexpressed in HEK TER cells) MAGASELGTGPGAAGGDGDDSLYPIAVLIDELRNEDVQLRLNSIKKLSTIALALGVERTRSELLPFLTDTIYDEDEVLLALAEQLGNFTGLVGGPDFAHCPLPPLENLATVEETVVRDKAVESLRQISQEHTPVALEAYFVPLVKRLASGDWFTSRTSACGLFSVCYPRASNAVKAEIRQQFRSLCSDDTPMVRRAAASKLGEFAKVLELDSVKSEIVPLFTSLASDEQDSVRLLAVEACVSIAQLLSQDDLETLVMPTLRQAAEDKSWRVRYMVADRFSELQKAMGPKITLNDLIPAFQNLLKDCEAEVRAAAAHKVKELGENLPIEDRETIIMNQILPYIKELVSDTNQHVKSALASVIMGLSTILGKENTIEHLLPLFLAQLKDECPDVRLNIISNLDCVNEVIGIRQLSQSLLPAIVELAEDAKWRVRLAIIEYMPLLAGQLGAEFFDEKLNSLCMAWLVDHVYAIREAATNNLMKLVQKFGTEWAQNTIVPKVLVMANDPNYLHRMTTLFCINALSEACGQEITTKQMLPIVLKMAGDQVANVRFNVAKSLQKIGPILDTNALQGEVKPVLQKLGQDEDMDVKYFAQEAISVLALA | no binding | – | < 50% | – | – |
| cancer-derived FLAG-tagged PP2A Aβ mutant V448A (other, UniProt P30154 1-601, looked up, not shown: small tags and cut ends, Overexpressed in HEK TER cells) MAGASELGTGPGAAGGDGDDSLYPIAVLIDELRNEDVQLRLNSIKKLSTIALALGVERTRSELLPFLTDTIYDEDEVLLALAEQLGNFTGLVGGPDFAHCLLPPLENLATVEETVVRDKAVESLRQISQEHTPVALEAYFVPLVKRLASGDWFTSRTSACGLFSVCYPRASNAVKAEIRQQFRSLCSDDTPMVRRAAASKLGEFAKVLELDSVKSEIVPLFTSLASDEQDSVRLLAVEACVSIAQLLSQDDLETLVMPTLRQAAEDKSWRVRYMVADRFSELQKAMGPKITLNDLIPAFQNLLKDCEAEVRAAAAHKVKELGENLPIEDRETIIMNQILPYIKELVSDTNQHVKSALASVIMGLSTILGKENTIEHLLPLFLAQLKDECPDVRLNIISNLDCVNEVIGIRQLSQSLLPAIVELAEDAKWRVRLAIIEYMPLLAGQLGAEFFDEKLNSLCMAWLVDHVYAIREAATNNLMKLVQKFGTEWAQNTIVPKVLVMANDPNYLHRMTTLFCINALSEACGQEITTKQMLPIVLKMAGDQVANVRFNVAKSLQKIGPILDTNALQGEVKPVLQKLGQDEDMDVKYFAQEAISVLALA | no binding | < 50% | < 50% | – | – |

More lines, now with the values ahead:

| binding result [1] | binding level (percent, co-immunoprecipitation densitometry) [2] | binding level (percent, co-immunoprecipitation densitometry) [3] | binding level (percent, co-immunoprecipitation densitometry) [4] | binding level (percent, co-immunoprecipitation densitometry) [5] | Binder |
| --- | --- | --- | --- | --- | --- |
| no binding | < 50% | > 90% | – | – | cancer-derived FLAG-tagged PP2A Aβ mutant L101P (other, UniProt P30154 1-601, looked up, not shown: small tags and cut ends, Overexpressed in HEK TER cells) MAGASELGTGPGAAGGDGDDSLYPIAVLIDELRNEDVQLRLNSIKKLSTIALALGVERTRSELLPFLTDTIYDEDEVLLALAEQLGNFTGLVGGPDFAHCPLPPLENLATVEETVVRDKAVESLRQISQEHTPVALEAYFVPLVKRLASGDWFTSRTSACGLFSVCYPRASNAVKAEIRQQFRSLCSDDTPMVRRAAASKLGEFAKVLELDSVKSEIVPLFTSLASDEQDSVRLLAVEACVSIAQLLSQDDLETLVMPTLRQAAEDKSWRVRYMVADRFSELQKAMGPKITLNDLIPAFQNLLKDCEAEVRAAAAHKVKELGENLPIEDRETIIMNQILPYIKELVSDTNQHVKSALASVIMGLSTILGKENTIEHLLPLFLAQLKDECPDVRLNIISNLDCVNEVIGIRQLSQSLLPAIVELAEDAKWRVRLAIIEYMPLLAGQLGVEFFDEKLNSLCMAWLVDHVYAIREAATNNLMKLVQKFGTEWAQNTIVPKVLVMANDPNYLHRMTTLFCINALSEACGQEITTKQMLPIVLKMAGDQVANVRFNVAKSLQKIGPILDTNALQGEVKPVLQKLGQDEDMDVKYFAQEAISVLALA |
| no binding | 50 to 90% | 50 to 90% | < 50% | < 50% | cancer-derived FLAG-tagged PP2A Aβ mutant K343E (other, UniProt P30154 1-601, looked up, not shown: small tags and cut ends, Overexpressed in HEK TER cells) MAGASELGTGPGAAGGDGDDSLYPIAVLIDELRNEDVQLRLNSIKKLSTIALALGVERTRSELLPFLTDTIYDEDEVLLALAEQLGNFTGLVGGPDFAHCLLPPLENLATVEETVVRDKAVESLRQISQEHTPVALEAYFVPLVKRLASGDWFTSRTSACGLFSVCYPRASNAVKAEIRQQFRSLCSDDTPMVRRAAASKLGEFAKVLELDSVKSEIVPLFTSLASDEQDSVRLLAVEACVSIAQLLSQDDLETLVMPTLRQAAEDKSWRVRYMVADRFSELQKAMGPKITLNDLIPAFQNLLKDCEAEVRAAAAHKVKELGENLPIEDRETIIMNQILPYIEELVSDTNQHVKSALASVIMGLSTILGKENTIEHLLPLFLAQLKDECPDVRLNIISNLDCVNEVIGIRQLSQSLLPAIVELAEDAKWRVRLAIIEYMPLLAGQLGVEFFDEKLNSLCMAWLVDHVYAIREAATNNLMKLVQKFGTEWAQNTIVPKVLVMANDPNYLHRMTTLFCINALSEACGQEITTKQMLPIVLKMAGDQVANVRFNVAKSLQKIGPILDTNALQGEVKPVLQKLGQDEDMDVKYFAQEAISVLALA |
| no binding | 50 to 90% | > 90% | > 90% | < 50% | cancer-derived FLAG-tagged PP2A Aβ mutant D504G (other, UniProt P30154 1-601, looked up, not shown: small tags and cut ends, Overexpressed in HEK TER cells) MAGASELGTGPGAAGGDGDDSLYPIAVLIDELRNEDVQLRLNSIKKLSTIALALGVERTRSELLPFLTDTIYDEDEVLLALAEQLGNFTGLVGGPDFAHCLLPPLENLATVEETVVRDKAVESLRQISQEHTPVALEAYFVPLVKRLASGDWFTSRTSACGLFSVCYPRASNAVKAEIRQQFRSLCSDDTPMVRRAAASKLGEFAKVLELDSVKSEIVPLFTSLASDEQDSVRLLAVEACVSIAQLLSQDDLETLVMPTLRQAAEDKSWRVRYMVADRFSELQKAMGPKITLNDLIPAFQNLLKDCEAEVRAAAAHKVKELGENLPIEDRETIIMNQILPYIKELVSDTNQHVKSALASVIMGLSTILGKENTIEHLLPLFLAQLKDECPDVRLNIISNLDCVNEVIGIRQLSQSLLPAIVELAEDAKWRVRLAIIEYMPLLAGQLGVEFFDEKLNSLCMAWLVDHVYAIREAATNNLMKLVQKFGTEWAQNTIVPKVLVMANGPNYLHRMTTLFCINALSEACGQEITTKQMLPIVLKMAGDQVANVRFNVAKSLQKIGPILDTNALQGEVKPVLQKLGQDEDMDVKYFAQEAISVLALA |
